We go through 1 substance from patent US20170298330A1.

The assay has as its target nMagHigh1-C714 (fused polypeptide of nMagHigh1 and a C-terminal side fragment of Cas9). As to the kind of experiment: cell-based or functional assay.

Substance “N713-pMag (fused polypeptide of an N-terminal side fragment of Cas9 and pMag)” registered a frequency of HDR (integration of a HindIII site) at human EMX1 locus, RFLP analysis, blue light of 7.2%; an indel frequency at EMX1 locus after 0, 1, 3 and 6 hours of blue light, T7E1 assay of less than 1%; a light-dependent Cas9 activity, luciferase plasmid HDR assay in HEK293T cells of 16.4 times.
